Experiment [1] has as its target HLA-A*24:02. The experiment in a line: IEDB peptide-MHC binding, purified MHC/competitive/fluorescence; ≥ and ≤ were set here for values at or beyond the usual limits of such assays.
Experiment [2] deals with HLA-A*02:01. The description is as above.
Experiment [3] concerns the target HLA-B*40:01. The experiment in a line: IEDB peptide-MHC binding, purified MHC/competitive/radioactivity; filed as Kd, often an IC50 or EC50 that approximates it; ≥ and ≤ were set here for values at or beyond the usual limits of such assays.
For experiment [4], the target named is HLA-A*02:01. The description is as above.
The target in the next experiment is HLA-A*31:01. The experiment in a line: IEDB peptide-MHC binding, purified MHC/direct/fluorescence; filed as Kd, often an IC50 or EC50 that approximates it; ≥ and ≤ were set here for values at or beyond the usual limits of such assays.
For the next experiment, the target named is HLA-A*24:03. Described as above.
Experiment [5] addresses HLA-B*15:01. Described as above.
A further experiment addresses HLA-A*69:01. Described as above.
The target of a further experiment is HLA-A*26:01. The experiment is described as above.
The next experiment addresses HLA-B*58:01. Described as above.
The next experiment has as its target HLA-B*08:01. Described as above.
The target in experiment [6] is HLA-B*44:02. The experiment is described as above.
The target of experiment [7] is HLA-B*07:02. The description is as above.
The next experiment deals with HLA-B*27:05. The experiment is described as above.
In a further experiment the target is HLA-A*01:01. Described as above.
For experiment [8], the target named is HLA-B*40:01. The description is as above.
Experiment [9] addresses HLA-A*02:01. The experiment is described as above.
The next experiment has as its target HLA-A*11:01. Described as above.
For the next experiment, the target named is HLA-A*03:01. The description is as above.
The target of the next experiment is HLA-B*39:01. The experiment in a line: IEDB peptide-MHC binding, purified MHC/competitive/fluorescence; filed as Kd, often an IC50 or EC50 that approximates it; ≥ and ≤ were set here for values at or beyond the usual limits of such assays.
Experiment [10] has as its target HLA-B*51:01. The description is as above. The note with it: source organism: Burkholderia ambifaria AMMD.
In a further experiment the target is HLA-A*02:02. The experiment in a line: IEDB peptide-MHC binding, purified MHC/competitive/radioactivity; filed as Kd, often an IC50 or EC50 that approximates it; ≥ and ≤ were set here for values at or beyond the usual limits of such assays. The note with it: source organism: Homo sapiens.
The target in another experiment is HLA-B*44:03. The description is as above.
The target in experiment [11] is HLA-B*44:02. The experiment is described as above.
The target in another experiment is HLA-A*30:01. The experiment is described as above. Conditions: source organism: Dengue virus 1 Brazil/97-11/1997.
The target of experiment [12] is HLA-B*07:02. Described as above.
Experiment [13] concerns the target HLA-A*24:02. Described as above. The note with it: source organism: Dengue virus 1 Brazil/97-11/1997.
The target of another experiment is HLA-B*35:01. Described as above. Conditions: source organism: Dengue virus 1 Brazil/97-11/1997.
A further experiment deals with HLA-B*53:01. The experiment is described as above. Conditions: source organism: Dengue virus 1 Brazil/97-11/1997.
The target in a further experiment is HLA-A*23:01. The experiment is described as above. Conditions: source organism: Dengue virus 1 Brazil/97-11/1997.
For experiment [14], the target named is HLA-B*51:01. The description is as above. Conditions: source organism: Dengue virus 2 16681-PDK53.
For experiment [15], the target named is HLA-B*15:01. Briefly: IEDB peptide-MHC binding, purified MHC/competitive/fluorescence; filed as Kd, often an IC50 or EC50 that approximates it; ≥ and ≤ were set here for values at or beyond the usual limits of such assays. The note with it: source organism: Yersinia pestis Nepal516.
Setting [16] is: source organism: Zaire ebolavirus.
[17] abbreviates: source organism: Dengue virus 3 Martinique/1243/1999.
[18] abbreviates: source organism: Dengue virus 4 Philippines/H241/1956.
Where [19] appears, read: source organism: Vaccinia virus.
The mark [20] stands for this setting: source organism: Sudan ebolavirus.
The mark [21] stands for this setting: source organism: Rickettsia prowazekii.
Where [22] appears, read: source organism: Triticum aestivum.
Where [23] appears, read: source organism: Salmonella enterica.
Where [24] appears, read: source organism: Salmonella enterica subsp. enterica serovar Typhi.
The mark [25] stands for this setting: source organism: Dengue virus 1 Brazil/97-11/1997.
[26] abbreviates: source organism: Vaccinia virus WR.
Setting [27] is: source organism: Dengue virus 1 Singapore/S275/1990.
[28] abbreviates: source organism: Dengue virus 2 Jamaica/1409/1983.
Where [29] appears, read: source organism: Vaccinia virus Copenhagen.
The mark [30] stands for this setting: source organism: Dengue virus 4 Dominica/814669/1981.

What is called IC50 is the concentration that gives 50% inhibition. High values mean lower potency, low ones higher potency. For EYLFEVDNL, the IC50 with HLA-A*24:02 [1] (setting [16]) stood at 0.402 µM; with HLA-A*02:01 [2] (setting [16]), 43.7 µM.
One may read the Kd as a measure of binding affinity in units of concentration. IEQMANGIAL: in the experiment with HLA-B*40:01 [3] (setting [17]), the Kd is 0.00257 µM.
In the case of FFLWVIILF, the figures for the IC50 with HLA-A*24:02 [1] (setting [16]) and in the experiment with HLA-A*02:01 [2] (setting [16]) were 53 µM and 7.45 µM, respectively.
With VEITALILGA, in the experiment with HLA-B*40:01 [3] (setting [18]), the Kd was found to be 0.842 µM.
QYVDDANLE showed an IC50 with HLA-A*24:02 [1] (setting [19]) not below 1330 µM.
Regarding LLMWITQCFL, the Kd with HLA-A*02:01 [4] (source organism: Homo sapiens) was found to be 0.043 µM.
With FFVWVIILF, the IC50 with HLA-A*24:02 [1] (setting [20]) was determined as 1.51 µM.
For the sequence IYSAEFKNY, the Kd is not below 20 µM with HLA-A*31:01 (setting [21]); 1.41 µM with HLA-A*24:03 (setting [21]); 20 µM in the experiment with HLA-B*15:01 [5] (setting [21]); not below 20 µM with HLA-A*69:01 (setting [21]); not below 20 µM in the experiment with HLA-A*26:01 (setting [21]); not below 20 µM in the experiment with HLA-B*58:01 (setting [21]). In addition, the Kd with HLA-B*08:01 (setting [21]), with HLA-B*44:02 [6] (setting [21]), in the experiment with HLA-B*07:02 [7] (setting [21]), in the experiment with HLA-B*27:05 (setting [21]), with HLA-A*01:01 (setting [21]) and with HLA-B*40:01 [8] (setting [21]) was not below 20 µM throughout. Further, the Kd with HLA-A*02:01 [9] (setting [21]), with HLA-A*11:01 (setting [21]) and with HLA-A*03:01 (setting [21]) was not below 20 µM each time.
Take THEILWPSF: the Kd in the experiment with HLA-B*39:01 (source organism: Shewanella putrefaciens CN-32) was found to be 2.48 µM.
The sequence LPWSSPQLW displayed a Kd with HLA-B*51:01 [10] of 0.0906 µM.
Turning to KLEEEQIIL, the Kd is 0.0735 µM in the experiment with HLA-A*02:02 and 0.0721 µM with HLA-A*02:01 [4] (source organism: Homo sapiens).
In the case of ELCCQHLWQI, in the experiment with HLA-A*02:01 [4] (setting [22]), the equilibrium dissociation constant (Kd) turned out to be 5.55 µM.
Regarding RPQLGVGDV, the Kd with HLA-A*31:01 (setting [23]) is not below 20 µM; in the experiment with HLA-A*24:03 (setting [24]) it was 6.18 µM; with HLA-B*15:01 [5] (setting [23]) it was not below 20 µM; in the experiment with HLA-A*69:01 (setting [23]), not below 20 µM; in the experiment with HLA-A*26:01 (setting [23]) it was not below 20 µM; in the experiment with HLA-B*58:01 (setting [23]) it was not below 20 µM. The Kd is not below 20 µM with HLA-B*08:01 (setting [23]); not below 20 µM with HLA-B*44:02 [6] (setting [23]); 0.38 µM in the experiment with HLA-B*07:02 [7] (setting [24]); not below 20 µM with HLA-B*27:05 (setting [23]); not below 20 µM with HLA-A*01:01 (setting [23]); not below 20 µM with HLA-B*40:01 [8] (setting [23]). For the same sequence, the Kd in the experiment with HLA-A*02:01 [9] (setting [23]), in the experiment with HLA-A*11:01 (setting [23]) and with HLA-A*03:01 (setting [23]) was not below 20 µM in each case.
The sequence LDKITDFHE gave an IC50 in the experiment with HLA-A*24:02 [1] (source organism: Variola virus) of 24.2 µM.
With GIFEDRAPV, the Kd in the experiment with HLA-A*02:01 [4] (source organism: Human alphaherpesvirus 1 strain 17) came out at 0.5 µM.
Turning to RAAGLQDCTM, the Kd with HLA-A*02:01 [4] (source organism: Hepatitis C virus (isolate 1)) was not below 50 µM.
Take IEVKTCIWPK: the Kd with HLA-B*40:01 [3] (setting [25]) was found to be 2.91 µM.
In the experiment with HLA-A*24:02 [1] (setting [16]), RQTQSRPIQ displayed an IC50 not below 125 µM.
Take MEVTAKWLWG: the Kd with HLA-B*44:03 (setting [25]) came to 0.128 µM.
With AIHNVVHAI, the Kd in the experiment with HLA-A*02:01 [4] (setting [22]) was 0.166 µM.
Consider RNTTPMMIQ, for which, in the experiment with HLA-A*24:02 [1] (setting [19]), the IC50 was not below 70.4 µM.
On to NGTLEFTPI, for which the results for the IC50 with HLA-A*24:02 [1] (setting [26]) and with HLA-A*02:01 [2] (setting [26]) were 23.1 µM and 11.1 µM, respectively.
As for SISGVLWQV, the equilibrium dissociation constant (Kd) in the experiment with HLA-A*02:01 [4] (source organism: Hepatitis C virus subtype 2b) was 0.036 µM.
Take LTLTNTSII: the Kd with HLA-A*02:01 [4] (source organism: Lassa virus Josiah) came to 6.25 µM.
As for SGASTSQETW, in the experiment with HLA-B*44:02 [11] (setting [25]), the Kd came to 10.9 µM.
For RLGLSRPLL, in the experiment with HLA-A*02:01 [4] (source organism: Hepatitis B virus subtype ayw), the Kd is not below 5 µM.
Regarding REWCFTGERN, the Kd with HLA-B*40:01 [3] (setting [18]) was 0.502 µM.
AEHSGASHNI: the Kd in the experiment with HLA-B*44:02 [11] (setting [27]) came to 0.0786 µM; with HLA-B*44:03 (setting [27]), 0.502 µM.
As to KELKCGSGIF, the Kd with HLA-B*44:02 [11] (setting [28]) came out at 0.0336 µM.
RSRWSRKML: the results for the Kd with HLA-A*30:01 and with HLA-B*07:02 [12] (setting [25]) were 0.0904 µM and 0.0931 µM, respectively.
In the case of ADMGCVINW, the results for the dissociation constant (Kd) with HLA-B*44:02 [11] (setting [17]) and in the experiment with HLA-B*44:03 (setting [17]) were 0.0928 µM and 0.11 µM, respectively.
Regarding LEENMEVEIW, the Kd with HLA-B*44:02 [11] (setting [18]) turned out to be 0.225 µM; in the experiment with HLA-B*44:03 (setting [18]), 0.257 µM.
For GIAWIPYFG, the IC50 is not below 76.2 µM in the experiment with HLA-A*24:02 [1] (setting [20]) and 2.72 µM in the experiment with HLA-A*02:01 [2] (setting [20]).
Consider LVMKDGRVL, for which, in the experiment with HLA-B*07:02 [12] (setting [28]), the Kd came out at 0.00107 µM.
For RPMFAVGLLF, the Kd with HLA-A*24:02 [13] stood at 0.416 µM; in the experiment with HLA-B*35:01, 0.919 µM; in the experiment with HLA-B*07:02 [12] (setting [25]), 0.0105 µM; with HLA-B*53:01, 0.0935 µM; with HLA-A*23:01, 0.0339 µM.
Regarding FEATARGARR, the Kd with HLA-B*40:01 [3] (setting [25]) came out at 1.9 µM.
The same measure, in the same setting: under PEVANLDII stands 8.59 µM.
As for WENVPYLGK, the Kd in the experiment with HLA-B*44:02 [11] (setting [17]) is 8.42 µM.
For LHSLSVETI, the values for the IC50 with HLA-A*24:02 [1] (setting [29]) and with HLA-A*02:01 [2] (setting [29]) were 13 µM and not below 195 µM, respectively.
Regarding ELSGYCSNI, the Kd in the experiment with HLA-A*02:01 [4] (source organism: Lassa virus GA391) was found to be 12.5 µM.
NLEEICQLI: the IC50 was not below 90.8 µM in the experiment with HLA-A*24:02 [1] (setting [16]) and 65.1 µM in the experiment with HLA-A*02:01 [2] (setting [16]).
For the sequence RKHHTKIDS, the IC50 with HLA-A*24:02 [1] (source organism: Variola virus) amounted to 27.2 µM.
As to SPIIDKKGKV, the Kd was not below 69.6 µM in the experiment with HLA-B*51:01 [14] and 0.582 µM with HLA-B*07:02 [12] (source organism: Dengue virus 2 16681-PDK53).
As for ILMDSIFVST, the Kd with HLA-B*07:02 [12] (setting [29]) is not below 69.6 µM.
For EEIDKKDGDL, the results for the Kd with HLA-B*40:01 [3] (setting [30]) and with HLA-B*44:03 (setting [30]) were 1.89 µM and 0.421 µM, respectively.
TEYKRVMTF yielded a Kd with HLA-B*15:01 [15] of 0.767 µM.
As for GEFGKAKGS, the Kd with HLA-B*44:03 (setting [28]) was 4.16 µM.
For YNAELLVAL, the Kd with HLA-B*39:01 (source organism: Influenza A virus (A/gray teal/Australia/2/1979(H4N4))) is 0.0009 µM.

The values are drawn from the Immune Epitope Database (IEDB).
